Assay results as given in the DeepSol protein solubility set.

Test: soluble on expression in E. coli; label from the status in PepcDB or PDB records

| Sequence | soluble on expression in E. coli |
| --- | --- |
| SKLSPIIMIPGSSATENRFDGLVRKLNQDRRGTKHSLLKVKVWNNGRITFEGKIRKNDNEPIIVIGFENNKDGYSNIKKQAKMMNQAFEALQNKYNFNNFKGLAHSNGGLIYTAFIENDLSDYDVKINSLMTIGTPYNFTETNIKNKSVMLADFIAAKENIPSTLHVYSVAGTITYDSDELVPDASVSAGKYIYQNQAKSYTEITVTGEDAQHSDLPTNDEVVDLIKQHIEGQGLRKKQKTKLEPQ | not soluble |
| SKSRRWVFALRHGERVDLTYGPWVPHCFENDTYVRKDLNLPLKLAHRAGGKGGYVKDTPLTRLGWFQAQLVGEGMRMAGVSIKHVYASPALRCVETAQGFLDGLRADPSVKIKVEPGLFEFKNWHMPKGIDFMTPIELCKAGLNVDMTYKPYVEMDASAETMDEFFKRGEVAMQAAVNDTEKDGGNVIFIGHAITLDQMVGALHRLRDDMEDVQPYEIGRNLLKVPYCALGAMRGKPWDVVSPPCPPSINSSSGRFDWRILIK | soluble |
| SLAAGVLPQNEQPYSTLVNNSECVANMKGNLERPTPKYTKVGERLRHVIPGHMACSMACGGRACKYENPARWSEQEQAIKGVYSSWVTDNILAMARPSSELLEKYHIIDQFLSHGIKTIINLQRPGEHASCGNPLEQESGFTYLPEAFMEAGIYFYNFGWKDYGVASLTTILDMVKVMTFALQEGKVAIHCHAGLGRTGVLIACYLVFATRMTADQAIIFVRAKRPNSIQTRGQLLCVREFTQFLTPLRNIFSCCDPKAHAVTLPQYLIRQRHLLHGYEARLLKHVPKIIHLVCKLLLDLAE | soluble |
| SLAFVCLAIGCLYTFLISTTFGCTSSSDTEIKVNPPQDFEIVDPGYLGYMYLQWQPPLSLDHFKECTVEYELKYRNIGSETWKTIITKNLHYKDGFDLNKGIEAKIHTMLPWQCTNGSEVQSSWAETTYWIS | soluble |
| SLCGEPGCRHEQTAVKAGRSRNWAGSFAKTPGRLFGVGFIRLYQLTLSGFVGNSCRHIPTCSEYGYEAIARHGLWAGGWMALFRVARCGPGGTSGLDPVPEELDGSKRWWTPWRYWSRHR | soluble |
| SLDSPADNPVDSTASDRPVEGRDRDDEGRARNARPRDGLGRPLPYGANGVPRQPEGVVRAPEATVAEAQRLLDDGKPFHAHEVFEDAWKAGPEEERELWRGMAQLAVGLTHSARGNATGGARLLRRGAGAVTAWAASEAGRERPYGMDLGAVAGWARELAGEVEGGGSVDAAARAPRLRG | not soluble |
| SLEKHSWYHGPVSRNAAEYLLSSGINGSFLVRESESSPGQRSISLRYEGRVYHYRINTASDGKLYVSSESRFNTLAELVHHHSTVADGLITTLHYPAPKRNKPTVYGVSPNY | soluble |
| SLFQNFINKFVGEKQMDLIKDCNTFLAFVTDKEQTKKKLYKNNMCKNRFCPMCAWRRARKDALGLSLMMQYIKQEEKKEFIFLTLTTPNVKAEELEDEIKKYNLSFGKLVKRKNVKAMMKGYVRKLEITYNKQRDDFNPHFHVLIAVNKSYFKDSKVYISQKEWLEMWRDVTGMPEITQVHVQKIKQNNNKELYEMAKYSGKDSDYLINQKIFDAYYKSLKGKQILVYSGLFKEARKKLKNGELDYLKEIDPTEYLYQIYYIWNQKEYLASELHELTEEEKRKINHQTINEIEEEK | soluble |
| SLGELPPAPSDSKRTVFLDIDETLVHVTPYPLPFVKPDATFLLQEHRRPSDPPGVSPEYLPGVSAGAAPRAALLHVYYRPFLMPFLENLLQTNRCELVAFTAALREYADPILDGIETKLGGARGSVFAARLYRQHCARAPRSKDLVHAAPSRCLSRCVLLDNSVVSLAAQLANGLLLRPFYGDPQDRELEGVLAFLLDLLEKTGDIRESMKESGMLHKVT | soluble |
| SLGWIKRLIRMVFQQVGVSMQSVLWSRKPYGSSRSIVRKIGTNLSLIQCPRVQFQINSHATEWSPSHPGEDAVASFADVGWVAKEEGECSARLRTEVRSRPPLQDDLLFFEKAPSRQISLPDLSQEEPQLKTPARANEEALQKICALENELAALRAQIAKIVTQQEQQNLTAGDLDSTTFGTIPPHPPPPPPPLPPPALGLHQSTSAVDLIKERREKRANAGKTLVKNNPKKPEMPNMLEILKEMNSVKLRSVKRSEQDVKPKPVDATDPAALIAEALKKKFAYRYRSDSQDEVEKGIPKSESEATSERVLFGPHMLKPTGKMKALIENVSDS | not soluble |
| SLHEFGITQNIVAIVTEHAKGAKVQRVLLEIGKLSAIMPDAIRFCFDICTQGTVLEGATLEILEIPGLGRCRQCGGEIYLDKPFGICNCGSVQLDLITGEELKIKEIEIEELCV | soluble |
| SLHRLNKKAGDYGEKAAEIYLKKSGYTILNRNFRCFLGEVDIIAKNKDYITFVEVKSRWSDTYGLPCEAVNYRKKLKIYRTAKYYIASKSLINYNFRFDVIEVILNHQNDSYDLKFIENAFQI | soluble |
| SLINNLSTHSYWPNRGQLEVQGLTVKYTEAGRAVLNDISFSVDGGQSVGLLGRTGSGKSTLLSALLGLNYTEGEMFIDGVSSSSMPLQAWRKAFGVVPQKVFILTGTFRMNLDPYGRYSDDELWRVAEEVGLKSVIEQFPDKLDFELKDGGSVLSNGHKQLMCLARSILSKARILLLDEPSSYLDPITLQVLRKTLKQSFSGCTVILSEAKVEPLLECDSFLMIEKSSVKSYDSIQKLMNEMSHLKQAISPAD | soluble |
| SLKCLVLTGISRNVIEELMRRNIRTIELRSAHNVATALKAEPGDCVFLTPARINDLGRGVSGLVAEVRGKEVMSQSLFYQSPSYIEESELTVVRLMLKPKSLGRLVQVKRGAFLETIEGDVVEMSYFDAR | soluble |
| SLKDELANIPGIQFVDHVAIAVKQGDLEGQVAAYKMLGFTEVHREDVLGGDQVREVLLRIGDGPNLIQLLEPLNASSPVQKLIEKNGGRGGFAHVAFRVRNARESFDAMTAQGFHIIDKAPRKGSRGTTVFFVHPKSLDSAPFGFLIEIVEEPVEG | soluble |
| SLKGSSAQVLVVEGEQGLNNDLSHSLEANGYLVTQCFNGKALQKEGLDDQLDLIILGATSESTEADLIQSIVMLREAVSTPIMLLGQKDCVESRIAFYTAGVDDYLTKPVNFSEFLIRVAVILKRVCSDSQMPKHADLLSGLDFEMDKRKGCIRSDEVELLLTPVEFKLLWALVSSGGRVLTKAFLYRNVLNRDFVQHDRSVDVHISRLRAKLSGVGVDTSRLETVHGEGYCYKEG | soluble |
| SLKITDVQLTAIGMPRLTGFVNKHVIVQLFTDEGIEGIGEMSDFSHLPKYAVDIVDLERTLKQILVGKNPFDIAPINTELNGNFPEAMYYYEKGSFIRNGVDTALYDLCAKALGVSVSDLLGGRQREKIKVCFPIFRHRFMDEVEANLELVKKQYEKGFDVFRLYVGKNVDADEAFLAGVYNEFGGKVKVKSLDFSHLLDWKEALRITRRLAKYPIDLVESPALRNDFAGLHHFRMRCELPVSEHVWSLRQQSEMIKHDSVDIFNIAPVFIGGITQARKAADAAAVAEKSVLIGTTQELSIGTTAMAYFGSTLDHLNYISDPTGPELYVGDVVKNKVNYENGYLHLPERSTIGLGMELDWEKVEQYRVESLNWEDVSVHQLQDRTAQTRA | not soluble |
| SLKNSESHGEADGGLRERKKRETKKRLTEKGIALFLERGFDNTTLDEIASAAGISRRTFFYYFKSKDEILLSLQSGIGEMLADAVRRAPSSSTPIEVVRDAAIGVCKVIPTNDMIEMDRLMRTSPSVQARKQVSYVQQEGEIYEALSERWPEPERSTALRVVAMLSVGAMRIAGDIFSQEKGVRPMVDLLEEAFGSLIQEVRSGDPRV | soluble |
| SLLLVIDVGNTNTVLGVYHDGKLEYHWRIETSRHKTEDEFGMILRSLFDHSGLMFEQIDGIIISSVVPPIMFALERMCTKYFHIEPQIVGPGMKTGLNIKYDNPKEVGADRIVNAVAAIHLYGNPLIVVDFGTATTYCYIDENKQYMGGAIAPGITISTEALYSRAAKLPRIEITRPDNIIGKNTVSAMQSGILFGYVGQVEGIVKRMKWQAKQKQKVIATGGLAPLIANESDCIDIVDPFLTLKGLELIYERNRVGSV | soluble |
| SLQHAPLNFVPDAAKVPPTPGQSPNARWSREAIEALFALPFNDLLFQAQQVHRAHFDANAVQLSTLLSIKTGGCPEDCSYCPQSARYDTGVEAEKLMPIDTVLEAAARAKQNGASRFCMGAAWRNPKPHQLDAVADMVRGVKAMGLETCVTLGMLKQEQAQQLKDAGLDYYNHNLDTAPEFYGEIITTRTYQDRLDTLEHVRDAGINVCCGGIVGLGESRHERAGLVAELANMEPYPDSVPINNLVKVEGTPLAGNEALDPFEFVRTIAVARITMPKAMVRLSAGREAMDDALQALCFMAGANSIFYGEKLLTTDNPEADADRKLLARLGMRVEVQDHLHQAEGAQHSHSSHCHIDITPADEG | soluble |
| SLQWECWPSLPCWRCFAASGRITLSIKRFTQNSRRHDMKITKINAIPLSYRLPEGKTVTMGVGSTIKRDAIIIRVETSEGITGYGEAHPGRSPGAITSLIHNTIAPMLIGMKATDCVGAWQRVHRMQLSSHGLGAGAALAISGIDMALWDIRGKAANMPLYELLGGSKRRIPAYAGGIALGYQPKESLAEEAQEYIARGYKALKLRIGDAARVDIERVRHVRKVLGDEVDILTDANTAYTMADARRVLPVLAEIQAGWLEEPFACNDFASYREVAKITPLVPIAAGENHYTRFEFGQMLDAGAVQVWQPDLSKCGGITEGIRIAAMASAYRIPINAHSSATGLNHAATIHFLAATENAGYFEACVSKFNPFRDMFGTSFEIGADGCVEPPDAPGLGIEVDESIFEKYPAVDGPGYVVKF | not soluble |
| SLRAEKSDDPLYPLTIIHLNDFHARFEETNTVSTRCKPDEGERCIGGYGRVVSRVKSLQQEYADRNPIYLNAGDSFQGTIWYTLLRWNVTAYFLNLLPADAMTLGNHEFDHGVEGLVPFLGAIDSPMLVANIDDREEPTLQGKYQRNVVLERGGRKIGIIGVIHHATDTLSMTDRVRFLDEVQCINQEATALKQLGVDIIVVLSHCGFTIDQQIARECPDVDVVVGGHSHTLLHTGTVADWPDVPAGSFPFVVEQAAGRRVLIVQAGSFTKYLGHLVVYFDERGEAVRWEGNTEYLDESFPKDEQIERELVPWRTQVDALAVRPVGVSRVFLSKPACRTGECNFGSFVADAFVDYYVGRGEAEHEWTYAAIGITNDGGLRTSLAPGTLTYEDLVTAIPYENTVDTFELRGQYLLDALEYSASRYDTADVLQFAGLRVVFNLTRPALQRVQRVDVRCRVCRIPRYEPLDVNATYRIAIAAWIGSGGNGYTMFGQHRTNVRVGPLDIDVFERYVAKMSPIMQGTDGRMVFVR | not soluble |
| SLRASDDKALQYAIAEITEIATGFGLDFYPMRYEICPAEIIYTFGAYGMPTRFSHWSFGKQFFRMKLQYDLGLSKIYELVINSDPCYAFLLDTNSLIQNKLIVAHVLAHCDFFKNNIRFSNTKRDMVESMSATAERVKAYEHKYGKEEVETFLDAVLAIQEHIDPSLMRPKLAWSIDDLEEEEVEKKKVSQYDDLWNLDNRNKKRERSNVRKKKKIPPQPEKDLLLFIEEYSRELEDWQRDILTMMREEMLYFWPQLETKIMNEGWASYY | soluble |
| SLRKIANSITEPIEQLVTAMKSVQHSGIEAGVSLSLPEHTQDEAGMLNRHFTVMMKRINELMEENVEKQLIIKETELKALQAQINPHFLYNTLESINWLAKANQQKQISKMVESLGFLLRNSIHMKKDIVTIQEEADIVRHYMTIQRFRFEERLKFTLDIDDEVKHCLIPKLTLQPLAENAIQYALEPFTRPCAIRIQAKKAKGCVCITVEDNGPGMDGRILESTGGRGIGLWNIRERISLTFGEPYGLRIHSEHEKGTRIVITIPCRNEVV | soluble |
| SLRSIMTPRGEISWVDAEQSEDEIRRQLLSSPHSLFPVCRGELDEIIGIVRAKEMLVALESGENVAALASASPAIVVPETLDPINLLGVLRRARGSFVIVTNEFGVVQGLVTPLDVLEAIAGEFPDADETPEIVIDGDGWLIKGSTDLHALQQALGLDPLINDDEDIATVAGLVISANGHIPRIGDVVSLPPLHFTVVEANDYRVDLVRAVVTRPPSDEEE | not soluble |
